# Results as given in patent publication US20240409645A1.
# T1: mouse IL-2Rα (mouse) (UniProt P01590)
# T1 sequence (looked up): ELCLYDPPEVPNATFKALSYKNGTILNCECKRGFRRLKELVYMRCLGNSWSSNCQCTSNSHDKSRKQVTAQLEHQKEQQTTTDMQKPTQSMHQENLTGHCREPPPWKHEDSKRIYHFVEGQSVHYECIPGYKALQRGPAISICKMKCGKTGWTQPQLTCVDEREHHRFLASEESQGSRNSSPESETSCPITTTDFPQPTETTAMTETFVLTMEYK
# T2: mouse IL-2Rβ (mouse) (UniProt P16297)
# T2 sequence (looked up): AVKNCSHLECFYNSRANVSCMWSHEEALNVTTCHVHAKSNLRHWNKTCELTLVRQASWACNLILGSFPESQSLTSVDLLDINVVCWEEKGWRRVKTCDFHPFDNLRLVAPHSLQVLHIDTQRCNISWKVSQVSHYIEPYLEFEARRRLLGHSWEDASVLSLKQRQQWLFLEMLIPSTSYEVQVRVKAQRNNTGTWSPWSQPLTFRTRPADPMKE
# T3: human interleukin-2 receptor β-chain (IL-2Rβ; CD122), recombinant protein (human) (UniProt P14784)
# T3 sequence: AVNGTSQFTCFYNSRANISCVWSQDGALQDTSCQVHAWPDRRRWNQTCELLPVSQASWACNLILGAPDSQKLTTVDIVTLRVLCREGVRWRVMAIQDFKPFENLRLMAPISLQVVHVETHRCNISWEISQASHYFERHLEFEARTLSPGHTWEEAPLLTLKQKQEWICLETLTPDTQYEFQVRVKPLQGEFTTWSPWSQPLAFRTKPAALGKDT
# Assays:
# [1] = molecular target: cynomolgus monkey IL-2Rα/CD25 subunit (cynomolgus monkey) (UniProt H6WS54); experiment: ELISA, monovalent; EC50 cyno vs human subunit
# [2] = molecular target: cynomolgus monkey IL-2Rα/CD25 subunit (cynomolgus monkey) (UniProt H6WS54); experiment: ELISA, monovalent VHH-hFc
# [3] = molecular target: human interleukin-2 receptor α-chain (IL-2Rα; CD25), recombinant protein (human) (UniProt P01589); experiment: ELISA, monovalent VHH-hFc
# mouse IL-2Rα (mouse) = molecular target: T1, mouse IL-2Rα (mouse); experiment: ELISA, P.E. on coated antigen
# mouse IL-2Rβ (mouse) = molecular target: T2, mouse IL-2Rβ (mouse); experiment: P.E. binding ELISA
# [4] = molecular target: T3, human interleukin-2 receptor β-chain (IL-2Rβ; CD122), recombinant protein (human); experiment: ELISA, monovalent VHH-hFc
# Sequence of human interleukin-2 receptor α-chain (IL-2Rα; CD25), recombinant protein (human) (P01589 22-240 limits assumed): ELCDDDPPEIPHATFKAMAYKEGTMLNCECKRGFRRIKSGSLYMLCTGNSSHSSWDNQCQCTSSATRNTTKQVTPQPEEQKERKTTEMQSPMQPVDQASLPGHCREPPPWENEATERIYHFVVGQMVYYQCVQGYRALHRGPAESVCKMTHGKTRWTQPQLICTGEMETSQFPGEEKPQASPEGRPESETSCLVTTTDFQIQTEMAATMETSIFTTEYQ
# Sequence of cynomolgus monkey IL-2Rα/CD25 subunit (cynomolgus monkey) (H6WS54 entry or part of it): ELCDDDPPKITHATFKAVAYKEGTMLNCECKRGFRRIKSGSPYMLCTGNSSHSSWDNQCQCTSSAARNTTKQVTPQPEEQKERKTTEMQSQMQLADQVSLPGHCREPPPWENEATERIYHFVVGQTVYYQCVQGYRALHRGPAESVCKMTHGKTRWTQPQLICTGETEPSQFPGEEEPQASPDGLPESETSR
Fold change [1],EC50 [2],EC50 [3],Binder,also measured
0.9 fold,98 pM,105 pM,"10-MP05F03 VHH-hFc, monospecific monovalent (Fc fusion, part only; not given: Both Fc arms and linker, not shown: another chain or arm of the molecule; a dimerising Fc or GST; small tags and cut ends) VHH: QVQLVESGGGLVQAGGSLRLSCAASGIPFDNYAMGWFRQAPGKEREFVAARDLEGIITRYGDSVKGRFTISRGNAKNTVFLQMNSLKPEDTAVYYCAARDGGVVAGSRSSAQYNYWGQGTQVTVSS",
1.3 fold,96 pM,74 pM,"2-MP01A02 VHH-hFc, monospecific monovalent (Fc fusion, part only; not given: Both Fc arms and linker, not shown: another chain or arm of the molecule; a dimerising Fc or GST; small tags and cut ends) VHH: QVQLVESGGGLVQPGGSLRLSCATSGFTFRNNFMSWVRQAPGKGLEWVSTISYGGESTTYAESVKGRFTISRDNAKNTLYLQMNNLKPEDTAVYYCAKATSYDSIRSGSRGQGTQVTVSS",
,,,FJ1427_P035MP01E11 (VHH) VHH: QVQLVESGGGLVQPGGSLRLSCAASGFTFSNNFMSWVRQAPGKGLEWVSTISYFGDSTRYAESVKGRFTISRDNEKNTLYLQMNNLKPEDTAVYYCAKATSYDSIRSGSRGRGTQVTVSS,OD (PE binding ELISA) (mouse IL-2Rα (mouse)): 0.046 OD450 nm
1.1 fold,69 pM,65 pM,"8-MP01C12 VHH-hFc, monospecific monovalent (Fc fusion, part only; not given: Both Fc arms and linker, not shown: another chain or arm of the molecule; a dimerising Fc or GST; small tags and cut ends) VHH: QVQLVESGGGLVQPGGSLRLSCATSGFTFSNNFMSWVRQAPGKGLEFVSTISYGGESTTYAEAVKGRFTISRDNAKNTLYLQMNNLKPEDTAIYYCAKATSYTSIRGAPRGQGTQVTVSS",
,,,19-MP03F08 VHH (periplasmic extract) (VHH) VHH: EVQLVESGGGLVQTGGSLRLSCAASGGTFSRDAMAWFRQVPGKEREFVALISWSGATTNYADSVKGRFAISRDNGKNTVYLQMNRLKPADTAIYYCAADRRPMGSRSYFEPTEYDDWGQGTQVTVSS,OD450 nm (mouse IL-2Rβ (mouse)): 0.049 OD450 nm
,,,"15-MP02E06 VHH-hFc, monospecific monovalent (Fc fusion, part only; not given: Both Fc arms and linker, not shown: another chain or arm of the molecule; a dimerising Fc or GST; small tags and cut ends) VHH: QVQLVESGGGSVQPGGSLRLSCAASGFTFSNYAMSWVRQAPGKGLEWVASITGFGRGTDYADSVKGRFTISRDNAEDTLYLQMNSLKPEDTAVYYCAKYSSSTYYPPTPARGRDYRGQGTQVTVSS",EC50 [4]: 640 pM
8.5 fold,1100 pM,130 pM,"12-MP05B12 VHH-hFc, monospecific monovalent (Fc fusion, part only; not given: Both Fc arms and linker, not shown: another chain or arm of the molecule; a dimerising Fc or GST; small tags and cut ends) VHH: QVQLVESGGGLVQAGGSLRLSCAASGFTFDGYAIGWFRQAPGKEREGVSYITGSDGSTYYADSVKGRFTISSNNAKNTVYLHMNSLKPDDAAVYYCAIDRLGSRGAYVPIWWRSSDMDLWGKGTLVTVSS",
,,,"20-MP03F10 VHH-hFc, monospecific monovalent (Fc fusion, part only; not given: Both Fc arms and linker, not shown: another chain or arm of the molecule; a dimerising Fc or GST; large carriers; small tags and cut ends) VHH: EVQLVESGGGLVQAGGSLRLSCAASGRDFSSYAMGWFRQAPGKEREFVVAITWTKRSTDFPDSVKGRFTISRDNAKNTVYLDMNSLKPEDTAVYYCASARGLPVTPLGDIIYWGEGTLVTVSS",EC50 [4]: 197 pM
,,,20-MP03F10 VHH (periplasmic extract) (VHH) VHH: EVQLVESGGGLVQAGGSLRLSCAASGRDFSSYAMGWFRQAPGKEREFVVAITWTKRSTDFPDSVKGRFTISRDNAKNTVYLDMNSLKPEDTAVYYCASARGLPVTPLGDIIYWGEGTLVTVSS,OD450 nm (mouse IL-2Rβ (mouse)): 0.048 OD450 nm
1.2 fold,317 pM,270 pM,"6-MP01G05 VHH-hFc, monospecific monovalent (Fc fusion, part only; not given: Both Fc arms and linker, not shown: another chain or arm of the molecule; a dimerising Fc or GST; small tags and cut ends) VHH: QVQLQESGGGLVQAGGSLRLSCAASGRTFSSYAMGWFRQAPGKEREFVAVISWNVDNTEYTDSVKGRFTISRDNDKNMVYLQMNSLKPEDTAVYYCAADSIPLSSDMSPTATEYGYWGQGTQVTVSS",
3.3 fold,1250 pM,378 pM,"11-MP05H04 VHH-hFc, monospecific monovalent (Fc fusion, part only; not given: Both Fc arms and linker, not shown: another chain or arm of the molecule; a dimerising Fc or GST; small tags and cut ends) VHH: QLQLVESGGGLVQAGGSLRLSCAASGLTFEGYAIGWFRQAPGKEREGVSYITGSDGTTYYINSVKGRFTISSDNAKSTVYLQMNTLKPEDTAVYYCAVDRLGSQGRYASAWWRSGDMDLWGKGTQVTVSS",
,,,FJ1427_P035MP01G10 (VHH) VHH: EVQLVESGGGLVQAGGSLRLSCAASGGAFSRYAVGWFRMAPGKGREFVSAIDLSGTNTHVLDSVKGRFTISRDNDKNTAYLQMDKLQPEDTAVYWCAATSSSYSDYEANYNIWGQGTQVTVSS,OD (PE binding ELISA) (mouse IL-2Rα (mouse)): 0.046 OD450 nm
,,,FJ1427_P035MP01A11 (VHH) VHH: QVQLVESGGGLVQPGGSLRLSCAASGRTFETHNMGWFRRAPGKEREFVAVISWNVDSTEYTDSVKGRFTISRDNDKNMVYLQMNSLKPEDTGVYYCAADNIPLSSDMSPTAAEYGYWGQGTQVTVSS,OD (PE binding ELISA) (mouse IL-2Rα (mouse)): 0.046 OD450 nm
1 fold,74 pM,78 pM,"9-MP05G01 VHH-hFc, monospecific monovalent (Fc fusion, part only; not given: Both Fc arms and linker, not shown: another chain or arm of the molecule; a dimerising Fc or GST; small tags and cut ends) VHH: EVQLVESGGGLVQAGGSLRLSCAASGGSIYTYNMGWFRQAPGKEREFVAGTLWSGGDSVYADFAKGRFTLSRENAKNTLYLQMNSLKPEDTATYYCAIDPLSLTSDWRVDELSSWGKGTLVTVSS",
,,,FJ1427_P035MP01D11 (VHH) VHH: QLQLVESGGGLVQAGDSLRLSCAASGRSFRNYIMAWYRQAPGKEREFLAAISWLDGTLYADSVEDRFTISRDNPKNTVHLQMDSLKPEDTAVYYCAADRGPVRPVLAPDVDYWGQGTQVTVSS,OD (PE binding ELISA) (mouse IL-2Rα (mouse)): 0.045 OD450 nm
,,,FJ1427_P035MP01F11 (VHH) VHH: QVQLQESGGGLVQAGDSLRLSCAASGRSFRNYILAWYRQAPGKEREFLAAISWLDGTLYADSVEDRFTISRDNPKNTVHLQMDSLKPEDTAVYYCAADRGPVRPVLAPDVDYWGQGTQVTVSS,OD (PE binding ELISA) (mouse IL-2Rα (mouse)): 0.047 OD450 nm
,,,FJ1427_P035MP01B12 (VHH) VHH: QVQLQESGGGLVQAGDSLRLSCAASGRSFRNYILAWYRQAPGKEREFLAAISWLDGTFYANSVEGRFTISRDNPKNTVHLQMDGLKPEDTAVYYCAADRGPVRPVLAPDVDYWGQGTQVTVAS,OD (PE binding ELISA) (mouse IL-2Rα (mouse)): 0.046 OD450 nm
,,,16-MP02B08 VHH (periplasmic extract) (VHH) VHH: EVQLVESGGGLVQAGGSLRLSCAASGRAIENYPVGWFRQAPGKEREFVAAITWISGSTLYADSVKGRFTISRDNAKNTVYLQMSSLKPEDTALYYCAAALKTITRGQNDYSYWGQGTQVTVSS,OD450 nm (mouse IL-2Rβ (mouse)): 0.048 OD450 nm
,,,FJ1427_P035MP01H10 (VHH) VHH: QVQLVESGGGLVETGGSLRLSCAASGITFNDHTMAWFRQAPGKEREFVAARDWSDIITRYASSVKGRFTISRDNAGNTGFLQMNSLRPEDTAVYYCAAREGGVVAGVRSGAPYDYWGQGTQVTVSS,OD (PE binding ELISA) (mouse IL-2Rα (mouse)): 0.057 OD450 nm
13.4 fold,1150 pM,86 pM,"3-MP01E03 VHH-hFc, monospecific monovalent (Fc fusion, part only; not given: Both Fc arms and linker, not shown: another chain or arm of the molecule; a dimerising Fc or GST; small tags and cut ends) VHH: QVQLVESGGGLVQAGGSLRLSCTASGRTLSSYSMAWFRQAADKGREFVTAISSSGVVTHVLDSVKGRFTISRDNAKNTVYLQMNSLQPEDTALYFCAGTASSYSTYEANYNYWGQGTLVTVSS",
,,,"18-MP03C03 VHH-hFc, monospecific monovalent (Fc fusion, part only; not given: Both Fc arms and linker, not shown: another chain or arm of the molecule; a dimerising Fc or GST; large carriers; small tags and cut ends) VHH: QVQLVESGGGLVQPGGSLRLSCAISGGTLDSYGIGWVRQAPGKQREGVSCMSRSDDRTYYADSVKGRFTISKDSAKNTVYLQMTSLKPEDTAVYYCAAVDAYGCSLVQPTTYDFWGLGTQVTVSS",EC50 [4]: 373 pM
1 fold,498 pM,478 pM,"1-MP01H01 VHH-hFc, monospecific monovalent (Fc fusion, part only; not given: Both Fc arms and linker, not shown: another chain or arm of the molecule; a dimerising Fc or GST; small tags and cut ends) VHH: EVQLVESGGGLVQAGGSLRLSCAASGRTFRTHNMGWFRRAPGKEREFVAAISWNVDNTLYADSVKGRFTISRDNGRNMVYLQMNSLKPEDTAVYYCAADNIPLSSDVAATATEYDYWGQGTQVTVSS",
,,,FJ1427_P035MP01H11 (VHH) VHH: QVQLVESGGGLVQAGGSLRLSCAASGRTFRTHNMGWFRRAPGKEREFVAAISWNVDNTLYADSVKGRFTISRDNDRNMVYLQMNSLKPEDTAVYFCAADNIPLSSDVRATATEFGYWGQGTRVTVSS,OD (PE binding ELISA) (mouse IL-2Rα (mouse)): 0.047 OD450 nm
1 fold,74 pM,77 pM,"4-MP01F04 VHH-hFc, monospecific monovalent (Fc fusion, part only; not given: Fc arms with stated mutations, not shown: another chain or arm of the molecule; a dimerising Fc or GST; small tags and cut ends) VHH: QVQLVESGGGLVQAGGSLRLSCAASGGTFRTRNMGWFRRAPGKEREFVAAVSWNVDNKLYADSVKGRFTISRDNGRNMVYLQMNSLKPEDTAVYYCAADNIPLSSDMRPTATEYDYWGQGTQVTVSS",
,,,17-MP02C09 VHH (periplasmic extract) (VHH) VHH: QVQLQESGGGLVQAGGSLRLSCVASGSVSSINGMAWYRQGADNQRVLVAAISRVGNTAYGDSVKGRFTISRQNARNTVYLQMNSLKPEDTAVYYCNADSWGGDDYWGQGTQVTVSS,OD450 nm (mouse IL-2Rβ (mouse)): 0.047 OD450 nm
1.5 fold,136 pM,88 pM,"5-MP01F05 VHH-hFc, monospecific monovalent (Fc fusion, part only; not given: Both Fc arms and linker, not shown: another chain or arm of the molecule; a dimerising Fc or GST; small tags and cut ends) VHH: EVQLVESGGGLVQAGGSLRLSCAASIRAFTTWSMAWFRQAPGKEREYVARINVSGSVTYYADFVKGRFTISRDNAKKTMYLEMNNLKPEDTALYYCAADRTGVGTNDYNYWGQGTQVTVSS",
0.8 fold,133 pM,173 pM,"7-MP01G08 VHH-hFc, monospecific monovalent (Fc fusion, part only; not given: Both Fc arms and linker, not shown: another chain or arm of the molecule; a dimerising Fc or GST; small tags and cut ends) VHH: EVQLVESGGGLVQAGGSLRLSCAASGRAFSMYNMGWFRQAPGKEREFVAATGWSGANTPYADSVKGRFTISRDNTQNTVYLQMNSLKPEDTATYYCAADSIRLRSDVTRIPLEYDYWGQGTQVTVSS",
